In article PMC6940360 one finds bound population of alpha-tubulin Tyr451 (P bound), bound population of beta-tubulin Ala444 (P bound) and bound population of tail residues around the EGE and FGE segments (P bound) data, which are given here for one molecule.

The target of the experiment is Taxol-stabilized microtubules (MTs) from HeLa S3 cells (human (endogenous in HeLa S3)) (UniProt P68363). The experiment in a line: solid-state NMR (J-based 2D 15N-HSQC); unlabeled MAP7-MTBD added to [13C,15N]-labeled MTs at molar ratio 2:1 MAP7-MTBD:MT in BRB80 with 20 uM taxol, 30 °C for 30 min, pelleted at 180,000 x g; MAS 44 kHz, actual temperature 293 K; bound population from a two-state model, P_bound = 1 - I_bound/I_free.

B1: MAP7-MTBD (microtubule-binding domain of MAP7D3, residues 59-170) (domain or fragment)
chain: DGSMLKNDIKQRLARERREEKRRQQDANKETQLLEKERKTKLQYEKQMEERQRKLKERKEKEEQRRIAAEEKRHQKDEAQKEKFTAILYRTLERRRLADDYQQKRWSWGGSA
As for B1, the bound population of alpha-tubulin Tyr451 (P bound) stood at 65%; the bound population of beta-tubulin Ala444 (P bound) is 25%; the bound population of tail residues around the EGE and FGE segments (P bound) is < 80%.
